From publication PMC10268213 (2023)
Positions count from the first letter of the chain named.

Assays:
[1] = biological target: T1, SARS-CoV-2 receptor-binding domain (RBD) (SARS-CoV-2, UniProt P0DTC2); test: SPR
[2] = biological target: T1, SARS-CoV-2 receptor-binding domain (RBD); test: SPR; remark: listed apart in the source

B1: Nb-C4-240 nanobody (VHH)
VHH: EVQLQESGGGLVQPGGSLRLSCAASGFTFSSYAMGWYRQAPGKEREWVCAISGSGGSTYYADSVKGRFTCSRDNSKNTLYLQMNSLKPEDTAVYYCARVVSYYDQTGFVYWQSYDYWGQGTQVTVSS
Kd [1]: 1060 nM | koff [2]: 0.969 s⁻¹

B2: Nb-C2-136 nanobody (VHH)
VHH: EVQLQESGGGLVQPGGSLRLSCAASGFTFSSYAMGWYRQAPGKEREWVCAISGSGGSTYYADSVKGRFTCSRDNSKNTLYLQMNSLKPEDTAVYYCARYGGPYDPTDSTYAFDYWGQGTQVTVSS
Kd [1]: 382 nM | koff [2]: 0.032 s⁻¹

B3: LM18 nanobody (VHH)
VHH: EVQLQESGGGLVQPGGSLRLSCAASGFTFSSYALGWYRQAPGKEREWVCAISGSGGSTYYADSVKGRFTCSRDNSKNTLYLQMNSLKPEDTAVYYCARVYQFYGARDYGYPYDFDYWGQGTQVTVSS
Kd [1]: 391 nM | koff [2]: 0.0944 s⁻¹

B4: Nb-C4-225 nanobody (VHH)
VHH: EVQLQESGGGLVQPGGSLRLSCAASGFTFSSYAMGWYRQAPGKEREWVCAISGSGGSTYYADSVKGRFTCSRDNSKNTLYLQMNSLKPEDTAVYYCARGSFYYTYGGSVGFDAFDYWGQGTQVTVSS
Kd [1]: 143 nM | koff [2]: 0.0057 s⁻¹

B5: Nb-C4-255 nanobody (VHH)
VHH: B4 VHH with G99Q, S100A, F101W, T104S, Y105P, G106Y, S108G, V109P, G110E, D112E
Kd [1]: 2950 nM | koff [2]: 0.295 s⁻¹
